# Experiments:
# Format in all cases: in vivo
# [1] = test system: Arabidopsis thaliana T1 plants; test: Topramezone tolerance of transgenic Arabidopsis thaliana T1 plants (spray, bleached leaf area grade, damage score); conditions: 7 DAT, Table 4; for Classification and statistics of the grade of pesticide damage: Grade 0 / Classification and statistics of the grade of pesticide damage: Grade 1 / Classification and statistics of the grade of pesticide damage: Grade 2 / Classification and statistics of the grade of pesticide damage: Grade 3: number of plants; for Scores: pesticide damage score 0-100
# How it was run: (§1)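 Read-out: per-plant damage grade 0–3 from proportion of bleached leaf area at 7 DAT (1 <50%, 2 >50%, 3 100%). Plants were T1 transformants, glufosinate-selected, plus wild-type CK, sprayed 18 days post-sowing. Rates: topramezone 25–200, isoxaflutole 35–280, mesotrione 52.5–420 g ai/ha.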
# [2] = test system: Arabidopsis thaliana T1 plants; test: Isoxaflutole tolerance of transgenic Arabidopsis thaliana T1 plants (spray, bleached leaf area grade, damage score); design: Scores (pesticide damage): scale not given here; conditions: spray, Arabidopsis thaliana T1 plants; for Classification and statistics of the grade of pesticide damage: Grade 0 (number of plants) / Classification and statistics of the grade of pesticide damage: Grade 1 (number of plants) / Classification and statistics of the grade of pesticide damage: Grade 2 (number of plants) / Classification and statistics of the grade of pesticide damage: Grade 3 (number of plants): 16 plants
# How it was run: as §1
# [3] = test system: Arabidopsis thaliana T1 plants; test: Mesotrione tolerance of transgenic Arabidopsis thaliana T1 plants (spray, bleached leaf area grade, damage score); design: Scores: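 damage score 0-100 computed as Σ(N×S)/(T×M)×100 over grades 0-3 with higher meaning more damage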; conditions: Arabidopsis thaliana T1 plants; for Grade 0 (classification and statistics of the grade of pesticide damage; number of plants) / Grade 1 (classification and statistics of the grade of pesticide damage; number of plants) / Grade 2 (classification and statistics of the grade of pesticide damage; number of plants) / Grade 3 (classification and statistics of the grade of pesticide damage; number of plants): 16 plants
# How it was run: as §1
# [4] = isoxaflutole 35 g ai/ha (0.5x field concentration)
# [5] = isoxaflutole 70 g ai/ha (1x field concentration)
molecule,measurement,setting,value
"AtHPPDm-F383W-02: nucleotide sequence encoding Arabidopsis thaliana HPPD with F383W; vector DBN11732 (nucleic acid, AtHPPDm-F383W-02 Nucleotide Sequence, vector DBN11732) DNA: ATGGGACATCAGAATGCTGCTGTATCAGAAAATCAAAATCATGATGATGGAGCCGCCTCCTCACCAGGGTTTAAGTTGGTTGGGTTCTCCAAGTTTGTACGGAAGAACCCAAAATCCGACAAGTTCAAGGTTAAACGCTTCCACCACATTGAATTCTGGTGCGGCGACGCCACCAATGTTGCTCGGCGTTTTTCATGGGGTTTAGGCATGAGATTCTCAGCAAAGAGTGACCTGAGCACCGGCAACATGGTTCATGCTAGCTATCTCTTAACATCTGGAGATTTGAGGTTTCTTTTCACGGCGCCGTACTCACCATCACTCTCCGCCGGCGAGATCAAACCCACCACGACTGCAAGCATACCTTCATTTGATCATGGTAGTTGCAGATCCTTCTTCTCGTCGCACGGCCTAGGGGTGCGCGCGGTCGCCATCGAAGTTGAAGATGCAGAATCAGCGTTTAGTATCAGCGTGGCAAATGGAGCTATTCCTTCCTCCCCTCCAATTGTCCTCAATGAGGCTGTAACTATTGCCGAGGTGAAGTTGTATGGAGATGTTGTGCTGAGATATGTTTCTTACAAGGCAGAGGACACTGAGAAATCTGAATTTTTGCCTGGTTTTGAAAGGGTCGAGGATGCTTCAAGTTTTCCTCTTGATTACGGCATACGACGGTTGGATCACGCGGTTGGAAATGTACCAGAACTTGGGCCGGCGCTCACTTATGTGGCTGGTTTCACTGGATTCCATCAATTTGCTGAGTTCACAGCTGATGATGTTGGGACTGCTGAAAGTGGGTTGAACTCTGCAGTCCTCGCCTCTAATGATGAAATGGTGCTCCTCCCGATCAACGAGCCTGTGCATGGCACCAAAAGGAAATCACAAATACAGACATATCTTGAGCACAATGAAGGTGCAGGGCTTCAACATCTTGCACTGATGTCTGAAGACATTTTCCGTACGCTGAGAGAGATGAGGAAGAGAAGTAGTATTGGTGGATTTGACTTCATGCCTTCTCCCCCACCAACTTACTACCAGAACTTGAAGAAGAGGGTTGGTGATGTGCTATCTGATGACCAGATCAAGGAGTGTGAAGAATTGGGCATTCTTGTTGATCGGGACGACCAAGGAACATTACTGCAGATATTTACAAAACCACTTGGTGACCGCCCCACTATTTGGATTGAGATCATACAAAGAGTCGGCTGCATGATGAAGGATGAGGAAGGAAAAGCATATCAATCTGGTGGTTGTGGCGGCTTTGGGAAAGGAAACTTCTCTGAGCTGTTCAAATCCATCGAGGAGTATGAGAAGACCTTGGAGGCCAAGCAGCTCGTGGGTTGA",Classification and statistics of the grade of pesticide damage: Grade 0,[1]; topramezone 25 g ai/ha (1×),0
same,Classification and statistics of the grade of pesticide damage: Grade 1,[1]; topramezone 25 g ai/ha (1×),2
same,Classification and statistics of the grade of pesticide damage: Grade 2,[1]; topramezone 25 g ai/ha (1×),5
same,Classification and statistics of the grade of pesticide damage: Grade 3,[1]; topramezone 25 g ai/ha (1×),9
same,Classification and statistics of the grade of pesticide damage: Grade 0,[1]; topramezone 100 g ai/ha (4×),0
same,Classification and statistics of the grade of pesticide damage: Grade 1,[1]; topramezone 100 g ai/ha (4×),0
same,Classification and statistics of the grade of pesticide damage: Grade 2,[1]; topramezone 100 g ai/ha (4×),2
same,Classification and statistics of the grade of pesticide damage: Grade 3,[1]; topramezone 100 g ai/ha (4×),14
same,Scores,[1]; topramezone 25 g ai/ha (1×),81
same,Scores,[1]; topramezone 100 g ai/ha (4×),96
same,Resistance evaluation,[1]; topramezone 25 g ai/ha (1×),non-resistant (non-resistant plants (scores 68-100))
same,Resistance evaluation,[1]; topramezone 100 g ai/ha (4×),non-resistant (non-resistant plants (scores 68-100))
same,Resistance evaluation,[2]; [4],Non-resistant
same,Scores (pesticide damage),[2]; [4],77
same,Classification and statistics of the grade of pesticide damage: Grade 0 (number of plants),[2]; [4],0
same,Classification and statistics of the grade of pesticide damage: Grade 1 (number of plants),[2]; [4],2
same,Classification and statistics of the grade of pesticide damage: Grade 2 (number of plants),[2]; [4],7
same,Classification and statistics of the grade of pesticide damage: Grade 3 (number of plants),[2]; [4],7
same,Resistance evaluation,[2]; [5],Non-resistant
same,Scores (pesticide damage),[2]; [5],100
same,Classification and statistics of the grade of pesticide damage: Grade 0 (number of plants),[2]; [5],0
same,Classification and statistics of the grade of pesticide damage: Grade 1 (number of plants),[2]; [5],0
same,Classification and statistics of the grade of pesticide damage: Grade 2 (number of plants),[2]; [5],0
same,Classification and statistics of the grade of pesticide damage: Grade 3 (number of plants),[2]; [5],16
same,Resistance evaluation,[3]; mesotrione 52.5 g ai/ha,Non-resistant
same,Scores,[3]; mesotrione 52.5 g ai/ha,100
same,Grade 0 (classification and statistics of the grade of pesticide damage; number of plants),[3]; mesotrione 52.5 g ai/ha,0
same,Grade 1 (classification and statistics of the grade of pesticide damage; number of plants),[3]; mesotrione 52.5 g ai/ha,0
same,Grade 2 (classification and statistics of the grade of pesticide damage; number of plants),[3]; mesotrione 52.5 g ai/ha,0
same,Grade 3 (classification and statistics of the grade of pesticide damage; number of plants),[3]; mesotrione 52.5 g ai/ha,16
same,Resistance evaluation,[3]; mesotrione 105 g ai/ha,Non-resistant
same,Scores,[3]; mesotrione 105 g ai/ha,100
same,Grade 0 (classification and statistics of the grade of pesticide damage; number of plants),[3]; mesotrione 105 g ai/ha,0
same,Grade 1 (classification and statistics of the grade of pesticide damage; number of plants),[3]; mesotrione 105 g ai/ha,0
same,Grade 2 (classification and statistics of the grade of pesticide damage; number of plants),[3]; mesotrione 105 g ai/ha,0
same,Grade 3 (classification and statistics of the grade of pesticide damage; number of plants),[3]; mesotrione 105 g ai/ha,16

# — patent publication US20250043302A1, “MUTATED HYDROXYPHENYLPYRUVATE DIOXYGENASE POLYPEPTIDE, AND CODING GENE AND USE THEREOF” (BEIJING DABEINONG BIOTECHNOLOGY CO., LTD., priority 2021, published 2025)
